Biological target: T1, HDA9-3xFLAG (HISTONE DEACETYLASE 9, pHDA9::HDA9-3xFLAG/hda9) (Arabidopsis thaliana, UniProt Q8H0W2 1-426)
T1 construct: Histone deacetylase 9 (HDA9), RPD3-type deacetylase, Arabidopsis thaliana; genomic DNA with its 1 kb promoter cloned into pEarleyGate302; Primers are in Supplementary file 1; also called HDA9-FLAG; source: Arabidopsis transgenic plants (native HDA9 promoter, hda9 background): in leaf extract for IP-MS; purified on anti-FLAG M2 beads with 3xFLAG peptide elution for the pull-down
T1 sequence (looked up): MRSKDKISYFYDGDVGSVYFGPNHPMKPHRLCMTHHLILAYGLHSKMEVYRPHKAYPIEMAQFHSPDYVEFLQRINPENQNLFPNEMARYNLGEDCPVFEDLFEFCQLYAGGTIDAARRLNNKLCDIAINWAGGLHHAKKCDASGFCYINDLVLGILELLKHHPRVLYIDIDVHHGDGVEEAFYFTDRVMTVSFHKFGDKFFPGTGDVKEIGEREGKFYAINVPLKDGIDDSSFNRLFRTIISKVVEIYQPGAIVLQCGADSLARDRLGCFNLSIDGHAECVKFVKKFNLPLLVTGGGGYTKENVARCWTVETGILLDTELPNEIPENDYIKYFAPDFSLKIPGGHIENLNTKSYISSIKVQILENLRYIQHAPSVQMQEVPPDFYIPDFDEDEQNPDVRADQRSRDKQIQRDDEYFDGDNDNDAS
Assay: pull-down; purified HDA9-FLAG incubated with GST-tagged protein in 20 mM Tris-HCl 8.0, 200 mM NaCl, 1 mM EDTA, 0.5% Nonidet P-40 for one hour, then Glutathione Sepharose 4B beads for one hour at 4°C; detected with anti-GST and anti-FLAG; two technical replicates
Conditions: both partners purified

binding result: binds
B1: GST-WRKY53 (GST tagged full-length WRKY53) (natural protein, Arabidopsis thaliana, UniProt Q9SUP6 1-324, looked up)
chain: MEGRDMLSWEQKTLLSELINGFDAAKKLQARLREAPSPSSSFSSPATAVAETNEILVKQIVSSYERSLLLLNWSSSPSVQLIPTPVTVVPVANPGSVPESPASINGSPRSEEFADGGGSSESHHRQDYIFNSKKRKMLPKWSEKVRISPERGLEGPQDDVFSWRKYGQKDILGAKFPRSYYRCTHRSTQNCWATKQVQRSDGDATVFEVTYRGTHTCSQAITRTPPLASPEKRQDTRVKPAITQKPKDILESLKSNLTVRTDGLDDGKDVFSFPDTPPFYNYGTINGEFGHVESSPIFDVVDWFNPTVEIDTTFPAFLHESIYY
notes: WRKY53 transcription factor, Arabidopsis thaliana; full-length cDNA cloned into pGOOD (pGEX-6P modified by adding a 6XHIS tag at the C terminus); Primers are in Supplementary file 1; source: E. coli, induced with 200 uM IPTG for three hours at 37°C, purified

From publication PMC5119886, “POWERDRESS interacts with HISTONE DEACETYLASE 9 to promote aging in Arabidopsis” (eLife, 2016)
